Results on one molecule are retold here after patent publication CN109776679A.

This assay has as its target T1, 丝氨酸蛋白酶抑制因子SPINK1的第10-19个氨基酸片段 (synthetic SPINK1 peptide, aa 10-19).
T1 sequence (peptide): SALALLSLSG
In words: antibody titer; method and coated antigen not stated there, taken to be ELISA on the coated immunogen peptide. For orientation: In an ELISA, binding on a coated surface is turned into a signal by an enzyme label.

B1: 单克隆抗体KZN2 (monoclonal antibody against SPINK1 produced by hybridoma CGMCC No.15800) (antibody, V domains shown)
VH: QVQLQQSGGGLVQPGGAMKLSCTASGFTFSDAWMYWVRQSPEKGLEWVAEIRNKAYNHATYYAESVKGRFTISGDDSKSSVYLQMNSLRAEDTGIYYCTTYDYWGQGTTVTVSS
VL: DIVMTQSPLSLPVSLGDQASISCRSSQSLVHGDGNTYLHWYLQKPGQSPNLLIYKISNRFSGVPDRFSGSGSGTDFTLKISRVEAEDLGVYFCSQNTHVPRTFGGGTKLEIK
The molecule B1 returned a 抗体最低作用浓度 of 0.0825 µg/mL and a 效价 (dilution factor (1:x)) of 4000.
